Among the targets are Elastase; bovine trypsin (bovine, UniProt P00760 24-246); chymotrypsin; MMP8 (human, UniProt P22894 101-467, limits assumed); MMP13 (human, UniProt P45452 104-471, limits assumed); MMP9 (human, UniProt P14780 107-707, limits assumed); MMP12 (human, UniProt P39900 106-470, limits assumed); MMP3 (human, UniProt P08254 100-477, limits assumed).
Holding throughout (experiment): cell-based or functional assay
The target in another experiment is T1, Cathepsin G (UniProt P08311 21-244).
T1 sequence (looked up): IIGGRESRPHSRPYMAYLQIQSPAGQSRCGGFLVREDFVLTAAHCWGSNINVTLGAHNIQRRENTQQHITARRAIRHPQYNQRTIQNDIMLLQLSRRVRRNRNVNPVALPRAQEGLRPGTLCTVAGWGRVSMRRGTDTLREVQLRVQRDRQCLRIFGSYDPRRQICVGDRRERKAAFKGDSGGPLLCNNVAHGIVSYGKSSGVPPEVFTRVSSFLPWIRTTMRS

The next experiment concerns the target T2, ADAMTS4 (human, UniProt O75173 213-685, limits assumed).
T2 sequence (looked up): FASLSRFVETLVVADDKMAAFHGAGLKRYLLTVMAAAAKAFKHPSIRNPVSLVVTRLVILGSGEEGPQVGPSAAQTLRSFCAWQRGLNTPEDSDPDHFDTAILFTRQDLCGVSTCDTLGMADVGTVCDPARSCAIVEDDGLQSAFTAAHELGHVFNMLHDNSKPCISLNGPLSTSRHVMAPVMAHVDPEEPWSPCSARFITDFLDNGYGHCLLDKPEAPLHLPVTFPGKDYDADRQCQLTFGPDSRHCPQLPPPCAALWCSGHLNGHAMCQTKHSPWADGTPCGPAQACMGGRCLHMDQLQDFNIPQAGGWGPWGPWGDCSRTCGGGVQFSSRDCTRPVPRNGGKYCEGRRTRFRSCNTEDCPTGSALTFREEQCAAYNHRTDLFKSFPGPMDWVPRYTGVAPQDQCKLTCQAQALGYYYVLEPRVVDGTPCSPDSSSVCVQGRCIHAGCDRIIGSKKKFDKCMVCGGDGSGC

The next experiment deals with T3, ADAMTS5 (human, UniProt Q9UNA0 262-622, limits assumed).
T3 sequence (looked up): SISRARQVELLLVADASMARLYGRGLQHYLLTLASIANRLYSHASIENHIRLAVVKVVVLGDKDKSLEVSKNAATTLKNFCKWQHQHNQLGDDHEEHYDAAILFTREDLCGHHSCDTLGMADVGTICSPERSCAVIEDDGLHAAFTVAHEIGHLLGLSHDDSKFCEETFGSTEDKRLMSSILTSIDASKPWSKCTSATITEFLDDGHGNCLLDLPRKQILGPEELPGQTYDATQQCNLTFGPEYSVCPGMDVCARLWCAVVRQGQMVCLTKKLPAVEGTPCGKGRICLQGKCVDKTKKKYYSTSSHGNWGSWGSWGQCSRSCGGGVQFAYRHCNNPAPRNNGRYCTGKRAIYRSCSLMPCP

For another experiment, the target named is T4, MMP1 (human, UniProt P03956 100-469, limits assumed).
T4 sequence (looked up): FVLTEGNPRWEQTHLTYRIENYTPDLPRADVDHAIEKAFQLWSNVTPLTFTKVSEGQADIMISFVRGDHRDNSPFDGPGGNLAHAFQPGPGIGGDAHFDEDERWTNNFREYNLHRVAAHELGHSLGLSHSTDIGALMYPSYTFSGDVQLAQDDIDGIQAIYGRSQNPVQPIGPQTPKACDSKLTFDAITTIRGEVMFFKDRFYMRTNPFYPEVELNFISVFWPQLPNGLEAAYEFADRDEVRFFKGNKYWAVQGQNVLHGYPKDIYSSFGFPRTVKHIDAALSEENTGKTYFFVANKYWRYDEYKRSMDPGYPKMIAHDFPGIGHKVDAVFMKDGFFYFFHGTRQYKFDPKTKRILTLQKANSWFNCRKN

A further experiment concerns the target T5, MMP2 (human, UniProt P08253 110-660, limits assumed).
T5 sequence (looked up): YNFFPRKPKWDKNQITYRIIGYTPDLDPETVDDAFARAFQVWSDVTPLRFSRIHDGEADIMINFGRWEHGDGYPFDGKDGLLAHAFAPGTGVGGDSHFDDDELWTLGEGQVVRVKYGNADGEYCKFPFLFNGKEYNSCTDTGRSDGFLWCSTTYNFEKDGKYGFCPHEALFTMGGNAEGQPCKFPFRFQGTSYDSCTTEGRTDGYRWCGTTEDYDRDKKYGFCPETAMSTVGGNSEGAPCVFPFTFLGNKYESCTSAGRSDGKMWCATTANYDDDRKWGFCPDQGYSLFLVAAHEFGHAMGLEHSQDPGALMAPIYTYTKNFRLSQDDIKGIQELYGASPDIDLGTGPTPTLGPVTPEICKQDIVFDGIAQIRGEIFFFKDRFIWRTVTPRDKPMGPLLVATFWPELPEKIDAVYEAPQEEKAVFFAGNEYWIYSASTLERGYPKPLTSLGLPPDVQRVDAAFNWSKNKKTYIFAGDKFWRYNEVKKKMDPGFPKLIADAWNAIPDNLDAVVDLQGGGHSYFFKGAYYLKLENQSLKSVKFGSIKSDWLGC

Sequence of MMP8 (P22894 101-467 limits assumed): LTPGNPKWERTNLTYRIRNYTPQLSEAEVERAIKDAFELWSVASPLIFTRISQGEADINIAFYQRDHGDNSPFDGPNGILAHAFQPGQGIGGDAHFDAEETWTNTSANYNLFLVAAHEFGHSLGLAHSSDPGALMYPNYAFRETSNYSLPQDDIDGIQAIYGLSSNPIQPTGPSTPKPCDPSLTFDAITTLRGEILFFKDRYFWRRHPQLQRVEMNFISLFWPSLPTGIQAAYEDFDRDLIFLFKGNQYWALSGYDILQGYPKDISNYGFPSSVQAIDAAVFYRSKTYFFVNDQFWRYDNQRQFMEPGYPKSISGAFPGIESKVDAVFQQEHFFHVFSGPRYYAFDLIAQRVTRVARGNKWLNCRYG
Sequence of bovine trypsin (P00760 24-246): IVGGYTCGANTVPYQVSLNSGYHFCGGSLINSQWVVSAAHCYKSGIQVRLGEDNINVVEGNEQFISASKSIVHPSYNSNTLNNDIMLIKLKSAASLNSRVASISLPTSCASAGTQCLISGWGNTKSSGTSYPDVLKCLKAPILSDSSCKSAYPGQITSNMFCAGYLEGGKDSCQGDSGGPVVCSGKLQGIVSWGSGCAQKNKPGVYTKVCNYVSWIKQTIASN
Sequence of MMP12 (P39900 106-470 limits assumed): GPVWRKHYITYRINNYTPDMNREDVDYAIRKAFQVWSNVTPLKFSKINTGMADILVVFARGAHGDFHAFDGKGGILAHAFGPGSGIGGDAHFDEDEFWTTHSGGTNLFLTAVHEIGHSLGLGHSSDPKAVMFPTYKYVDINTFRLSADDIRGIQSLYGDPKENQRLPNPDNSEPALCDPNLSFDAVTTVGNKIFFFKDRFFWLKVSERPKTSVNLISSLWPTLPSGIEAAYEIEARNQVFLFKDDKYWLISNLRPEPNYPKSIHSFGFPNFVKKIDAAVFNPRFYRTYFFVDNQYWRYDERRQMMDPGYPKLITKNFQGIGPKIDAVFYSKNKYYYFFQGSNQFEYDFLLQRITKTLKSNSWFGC
Sequence of MMP9 (P14780 107-707 limits assumed): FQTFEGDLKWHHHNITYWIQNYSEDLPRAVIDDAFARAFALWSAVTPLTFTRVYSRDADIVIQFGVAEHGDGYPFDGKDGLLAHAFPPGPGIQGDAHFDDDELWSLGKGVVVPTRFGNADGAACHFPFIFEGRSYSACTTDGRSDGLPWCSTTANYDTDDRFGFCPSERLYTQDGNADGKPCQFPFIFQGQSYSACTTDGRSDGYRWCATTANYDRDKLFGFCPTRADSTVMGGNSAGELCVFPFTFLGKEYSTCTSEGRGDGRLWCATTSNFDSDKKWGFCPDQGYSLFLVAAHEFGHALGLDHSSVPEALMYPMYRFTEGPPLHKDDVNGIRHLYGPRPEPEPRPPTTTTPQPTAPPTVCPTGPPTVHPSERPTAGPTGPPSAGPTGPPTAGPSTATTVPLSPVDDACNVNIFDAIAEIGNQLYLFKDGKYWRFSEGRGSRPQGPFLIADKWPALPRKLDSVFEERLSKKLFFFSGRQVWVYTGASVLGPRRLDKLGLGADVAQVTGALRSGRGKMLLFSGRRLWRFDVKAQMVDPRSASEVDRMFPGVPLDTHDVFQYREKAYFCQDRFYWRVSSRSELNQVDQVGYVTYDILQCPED
Sequence of MMP3 (P08254 100-477 limits assumed): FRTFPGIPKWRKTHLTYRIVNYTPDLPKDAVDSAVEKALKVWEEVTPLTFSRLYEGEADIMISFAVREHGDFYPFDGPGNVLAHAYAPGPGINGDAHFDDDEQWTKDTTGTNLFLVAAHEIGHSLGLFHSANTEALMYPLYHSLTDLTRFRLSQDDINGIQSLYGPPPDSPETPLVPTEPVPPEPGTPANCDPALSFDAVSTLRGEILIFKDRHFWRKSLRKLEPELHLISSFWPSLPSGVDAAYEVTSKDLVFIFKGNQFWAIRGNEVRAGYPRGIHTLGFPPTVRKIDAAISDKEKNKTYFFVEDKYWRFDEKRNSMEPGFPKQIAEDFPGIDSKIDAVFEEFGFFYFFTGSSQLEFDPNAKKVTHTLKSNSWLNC

B1: Variant A2M, bait region SEQ ID NO 130 (other)
chain: SVSGKPQYMVLVPSLLHTETTEKGCVLLSYLNETVTVSASLESVRGNRSLFTDLEAENDVLHCVAFAVPKSSSNEEVMFLTVQVKGPTQEFKKRTTVMVKNEDSLVFVQTDKSIYKPGQTVKFRVVSMDENFHPLNELIPLVYIQDPKGNRIAQWQSFQLEGGLKQFSFPLSSEPFQGSYKVVVQKKSGGRTEHPFTVEEFVLPKFEVQVTVPKIITILEEEMNVSVCGLYTYGKPVPGHVTVSICRKYSDASDCHGEDSQAFCEKFSGQLNSHGCFYQQVKTKVFQLKRKEYEMKLHTEAQIQEEGTVVELTGRQSSEITRTITKLSFVKVDSHFRQGIPFFGQVRLVDGKGVPIPNKVIFIRGNEANYYSNATTDEHGLVQFSINTTNVMGTSLTVRVNYKDRSPCYGYQWVSEEHEEAHHTAYLVFSPSKSFVHLEPMSHELPCGHTQTVQAHYILNGGTLLGLKKLSFYYLIMAKGGIVRTGTHGLLVKQEDMKGHFSISIPVKSDIAPVARLLIYAVLPTGDVIGDSAKYDVENCLANKVDLSFSPSQSLPASHAHLRVTAAPQSVCALRAVDQSVLLMKPDAELSASSVYNLLPEKDLTGFPGPLNDQDDEDCINRHNVYINGITYTPVSSTNEKDMYSFLEDMGLKAFTNSKIRKPKMCPQLEQYEMHGPSEDLVVQIEGEGEGEGIPENFFGVEAIPMSIPTVEEPHTKLRKYFPETWIWDLVVVNSAGVAEVGVTVPDTITEWKAGAFCLSEDAGLGISSTASLRAFQPFFVELTMPYSVIRGEAFTLKATVLNYLPKCIRVSVQLEASPAFLAVPVEKEQAPHCICANGRQTVSWAVTPKSLGNVNFTVSAEALESQELCGTEVPSVPEHGRKDTVIKPLLVEPEGLEKETTFNSLLCPSGGEVSEELSLKLPPNVVEESARASVSVLGDILGSAMQNTQNLLQMPYGCGEQNMVLFAPNIYVLDYLNETQQLTPEIKSKAIGYLNTGYQRQLNYKHYDGSYSTFGERYGRNQGNTWLTAFVLKTFAQARAYIFIDEAHITQALIWLSQRQKDNGCFRSSGSLLNNAIKGGVEDEVTLSAYITIALLEIPLTVTHPVVRNALFCLESAWKTAQEGDHGSHVYTKALLAYAFALAGNQDKRKEVLKSLNEEAVKKDNSVHWERPQKPKAPVGHFYEPQAPSAEVEMTSYVLLAYLTAQPAPTSEDLTSATNIVKWITKQQNAQGGFSSTQDTVVALHALSKYGAATFTRTGKAAQVTIQSSGTFSSKFQVDNNNRLLLQQVSLPELPGEYSMKVTGEGCVYLQTSLKYNILPEKEEFPFALGVQTLPQTCDEPKAHTSFQISLSVSYTGSRSASNMAIVDVKMVSGFIPLKPTVKMLERSNHVSRTEVSSNHVLIYLDKVSNQTLSLFFTVLQDVPVRDLKPAIVKVYDYYETDEFAIAEYNAPCSKDLGNADYKDDDDKGASHHHHHH
In the case of B1, the “Protease Inhibition (% of WT)” value with Elastase was 103 % of WT; with Cathepsin G it was 311 % of WT; with bovine trypsin, 250 % of WT; with chymotrypsin, 100 % of WT; in the experiment with ADAMTS4, 110 % of WT; with ADAMTS5, 211 % of WT. Further, the “Protease Inhibition (% of WT)” value is 283 % of WT with MMP1; 180 % of WT in the experiment with MMP8; 146 % of WT with MMP13; 109 % of WT with MMP2; 100 % of WT with MMP9; 124 % of WT with MMP12.

B2: Variant A2M, bait region SEQ ID NO 84 (other)
chain: SVSGKPQYMVLVPSLLHTETTEKGCVLLSYLNETVTVSASLESVRGNRSLFTDLEAENDVLHCVAFAVPKSSSNEEVMFLTVQVKGPTQEFKKRTTVMVKNEDSLVFVQTDKSIYKPGQTVKFRVVSMDENFHPLNELIPLVYIQDPKGNRIAQWQSFQLEGGLKQFSFPLSSEPFQGSYKVVVQKKSGGRTEHPFTVEEFVLPKFEVQVTVPKIITILEEEMNVSVCGLYTYGKPVPGHVTVSICRKYSDASDCHGEDSQAFCEKFSGQLNSHGCFYQQVKTKVFQLKRKEYEMKLHTEAQIQEEGTVVELTGRQSSEITRTITKLSFVKVDSHFRQGIPFFGQVRLVDGKGVPIPNKVIFIRGNEANYYSNATTDEHGLVQFSINTTNVMGTSLTVRVNYKDRSPCYGYQWVSEEHEEAHHTAYLVFSPSKSFVHLEPMSHELPCGHTQTVQAHYILNGGTLLGLKKLSFYYLIMAKGGIVRTGTHGLLVKQEDMKGHFSISIPVKSDIAPVARLLIYAVLPTGDVIGDSAKYDVENCLANKVDLSFSPSQSLPASHAHLRVTAAPQSVCALRAVDQSVLLMKPDAELSASSVYNLLPEKDLTGFPGPLNDQDDEDCINRHNVYINGITYTPVSSTNEKDMYSFLEDMGLKAFTNSKIRKPKMCPQLEQYEMHGPEGLRVGKEEEGLGSIPENFFGVSELEGRGSKLRKYFPETWIWDLVVVNSAGVAEVGVTVPDTITEWKAGAFCLSEDAGLGISSTASLRAFQPFFVELTMPYSVIRGEAFTLKATVLNYLPKCIRVSVQLEASPAFLAVPVEKEQAPHCICANGRQTVSWAVTPKSLGNVNFTVSAEALESQELCGTEVPSVPEHGRKDTVIKPLLVEPEGLEKETTFNSLLCPSGGEVSEELSLKLPPNVVEESARASVSVLGDILGSAMQNTQNLLQMPYGCGEQNMVLFAPNIYVLDYLNETQQLTPEIKSKAIGYLNTGYQRQLNYKHYDGSYSTFGERYGRNQGNTWLTAFVLKTFAQARAYIFIDEAHITQALIWLSQRQKDNGCFRSSGSLLNNAIKGGVEDEVTLSAYITIALLEIPLTVTHPVVRNALFCLESAWKTAQEGDHGSHVYTKALLAYAFALAGNQDKRKEVLKSLNEEAVKKDNSVHWERPQKPKAPVGHFYEPQAPSAEVEMTSYVLLAYLTAQPAPTSEDLTSATNIVKWITKQQNAQGGFSSTQDTVVALHALSKYGAATFTRTGKAAQVTIQSSGTFSSKFQVDNNNRLLLQQVSLPELPGEYSMKVTGEGCVYLQTSLKYNILPEKEEFPFALGVQTLPQTCDEPKAHTSFQISLSVSYTGSRSASNMAIVDVKMVSGFIPLKPTVKMLERSNHVSRTEVSSNHVLIYLDKVSNQTLSLFFTVLQDVPVRDLKPAIVKVYDYYETDEFAIAEYNAPCSKDLGNADYKDDDDKGASHHHHHH
B2: the “Protease Inhibition (% of WT)” value is 75 % of WT with Elastase; 100 % of WT in the experiment with bovine trypsin; 71 % of WT in the experiment with chymotrypsin; 70 % of WT in the experiment with ADAMTS4; 250 % of WT with ADAMTS5; 180 % of WT in the experiment with MMP1. Further, the “Protease Inhibition (% of WT)” value was 350 % of WT with MMP8; 720 % of WT with MMP13; 120 % of WT in the experiment with MMP2; 60 % of WT with MMP9; 170 % of WT with MMP3; 100 % of WT with MMP12.

These data come from patent publication US20230250154A1 (CYTONICS, published 2023).
